Experimental data taken from PMC8354235 (Journal of Virology, 2021).
Several values for one entry are separate records, joined by “and”; a condition that tells them apart may be missing. Identical values can stand only once.

B1: OKT9 antigen binding fragment (OKT9-Fab) (Fab, V domains shown)
VH: QIQLQQSGPELVKPGTSMNISCKASGYTFTNYYMHWVRQRPGQGLEWIGWIYPGDGNTHYNEKFKGKTTLTADTSSITAYMLLSSLTSEDSAVYFCARDNSGYVGFPYWGQGTLVTVSA
VL: DIVMTQSPSSLTVTAGERVTMSCKSSQSLFNSANQENYLTWYQQRPGQPPKLLIYWASTRDSGVPDRFTGSGSGTDFTLTISSVQAEDLAVYYCQNDYSYPLTFGAGTKLELK
notes: also called Fab OKT9; OKT9 variable region
B2: murine monoclonal antibody OKT9 (full-length IgG1) (antibody, V domains shown)
VH: B1 VH
VL: B1 VL
notes: also called full-length OKT9

Experiments:
[1] = molecular target: T1, histidine-tagged soluble extracellular domain of human transferrin receptor 1 (sTfR1) from BHK cells (human, UniProt P02786); assay: ELISA; conditions: both partners purified
T1 construct: also called hTfR1; sTfR1-His

[2] = molecular target: T1, histidine-tagged soluble extracellular …; assay: BLI; conditions: both partners purified

T1 sequence (P02786 89-760): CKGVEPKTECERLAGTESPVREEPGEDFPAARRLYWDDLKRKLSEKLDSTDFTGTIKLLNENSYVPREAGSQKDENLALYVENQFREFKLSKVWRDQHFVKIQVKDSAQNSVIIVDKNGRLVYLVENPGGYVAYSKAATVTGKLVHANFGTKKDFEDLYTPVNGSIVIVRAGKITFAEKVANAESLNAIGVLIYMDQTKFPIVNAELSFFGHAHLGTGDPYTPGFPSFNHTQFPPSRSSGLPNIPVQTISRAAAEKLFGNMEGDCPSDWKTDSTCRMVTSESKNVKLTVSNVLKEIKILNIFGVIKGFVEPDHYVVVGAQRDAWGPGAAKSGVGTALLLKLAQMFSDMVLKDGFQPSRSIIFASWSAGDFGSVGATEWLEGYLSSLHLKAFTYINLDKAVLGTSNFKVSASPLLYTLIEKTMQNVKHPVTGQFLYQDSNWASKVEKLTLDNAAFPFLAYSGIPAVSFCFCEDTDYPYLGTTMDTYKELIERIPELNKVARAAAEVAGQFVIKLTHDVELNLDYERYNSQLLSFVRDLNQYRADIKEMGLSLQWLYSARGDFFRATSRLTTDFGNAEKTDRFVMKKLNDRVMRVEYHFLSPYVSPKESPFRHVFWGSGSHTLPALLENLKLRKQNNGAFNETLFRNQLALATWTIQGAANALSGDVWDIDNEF

Binder	EC50 [1]	Kd [2]	koff [2]
B1	3.69 nM and ~3.66 nM	4.9 nM and 4.78 nM and 4.76 nM and 4.82 nM	0.0012 s⁻¹ and 0.00125 s⁻¹ and 0.00114 s⁻¹
B2	0.411 nM		
